US20200339678A1 (RIGEL PHARMACEUTICALS, published 2020)

T1: His-tagged recombinant Human TIGIT (human, UniProt Q495A1 22-141)
T1 construct: also called VSIG9; VSTM3; not shown: His tag
T1 sequence (looked up): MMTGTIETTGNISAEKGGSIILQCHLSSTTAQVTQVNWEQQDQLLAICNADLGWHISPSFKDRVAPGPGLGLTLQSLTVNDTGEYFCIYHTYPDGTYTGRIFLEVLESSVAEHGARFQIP

T2: His-tagged recombinant Mouse TIGIT (mouse, UniProt P86176 29-148, limits assumed)
T2 construct: not shown: His tag
T2 sequence (looked up): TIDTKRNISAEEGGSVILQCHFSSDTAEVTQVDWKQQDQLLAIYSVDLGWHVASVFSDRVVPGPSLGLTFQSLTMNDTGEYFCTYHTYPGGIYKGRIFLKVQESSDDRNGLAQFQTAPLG


Columns and labels:
[1] = molecular target: T1, His-tagged recombinant Human TIGIT; assay: ELISA, coated His-tagged human TIGIT
Description: (§1) Binding affinities for antigen binding to anti-TIGIT monoclonal antibodies were determined by ELISA. […] Antibodies to be tested were diluted to 1 μM in PBS buffer containing 1% BSA and diluted 3-fold in a 10-point curve. […] Detection of the secondary antibody was determined using streptavidin-HRP and TMB reagent. All assays were performed at room temperature. Curve-fitting software was used to determine the EC₅₀ for each antibody.

[2] = molecular target: T2, His-tagged recombinant Mouse TIGIT; assay: ELISA, coated His-tagged mouse TIGIT
Description: as §1

| Binder | EC50 [1] [nM] | EC50 [2] [nM] |
| --- | --- | --- |
| Ab78 (Fab, V domains shown, ARV set) VH: EVQLLESGGGLVQPGGSLRLSCAASGFTFSSYSMHWVRQAPGKGLEWVASISGSTSSSSYADSVKGRFTISRDNSKNTLYLQMNSLRAEDTAVYYCARVPYDVWMDYWGQGTLVTVSS VL: not shown | 119 |  |
| Ab156 (Fab, V domains shown, ARV set) VH: EVQLLESGGGLVQPGGSLRLSCAASGFTFSSYAMSWVRQAPGKGLEWVSYISGNAGYISYADSVKGRFTISRDNSKNTLYLQMNSLRAEDTAVYYCARVPYGVWMDYWGQGTLVTVSS VL: DIQMTQSPSSLSASVGDRVTITCRASQSISSYAAWYQQKPGKAPKLLIYGNTSRQSGVPSRFSGSGSGTDFTLTISSLQPEDFATYYCQQYSNSPLTFGGGTKVEIK |  | 164 |
| Ab93 (Fab, V domains shown, ARV set) VH: EVQLLESGGGLVQPGGSLRLSCAASGFTFSSYAMSWVRQAPGKGLEWVASISSSTGTISYADSVKGRFTISRDNSKNTLYLQMNSLRAEDTAVYYCARVPYSVWMDYWGQGTLVTVSS VL: not shown | 122 |  |
| Ab170 (Fab, V domains shown, ARV set) VH: EVQLLESGGGLVQPGGSLRLSCAASGFTFNSYAMHWVRQAPGKGLEWVAYISGNAGSIYYADSVKGRFTISRDNSKNTLYLQMNSLRAEDTAVYYCARVPYSVWLDYWGQGTLVTVSS VL: not shown | 138 |  |
| Ab54 (Fab, V domains shown, ARE set) VH: EVQLLESGGGLVQPGGSLRLSCAASGFTFSSYAMSWVRQAPGKGLEWVSSIKSNTGSTSYADSVKGRFTISRDNSKNTLYLQMNSLRAEDTAVYYCAREPYSYWLDYWGQGTLVTVSS VL: not shown | 91.9 | 21.5 |
| Ab13 (Fab, V domains shown, ARV set) VH: EVQLLESGGGLVQPGGSLRLSCAASGFTFDSYSMHWVRQAPGKGLEWVSSINSNGGYKYYADSVKGRFTISRDNSKNTLYLQMNSLRAEDTAVYYCARVPYDYWIDYWGQGTLVTVSS VL: not shown | 43.1 | 59.2 |
| Ab172 (Fab, V domains shown, ARV set) VH: EVQLLESGGGLVQPGGSLRLSCAASGFTFSSYSMHWVRQAPGKGLEWVSSIKSSAGYTYYADSVKGRFTISRDNSKNTLYLQMNSLRAEDTAVYYCARVPYDYWIDYWGQGTLVTVSS VL: not shown | 83.2 | 108 |
| Ab179 (Fab, V domains shown, ARE set) VH: EVQLLESGGGLVQPGGSLRLSCAASGFTFSSYAMSWVRQAPGKGLEWVASIKSNTGSTYYADSVKGRFTISRDNSKNTLYLQMNSLRAEDTAVYYCAREPYSVWLDYWGQGTLVTVSS VL: not shown | 155 | 228 |
| Ab97 (Fab, V domains shown, ARV set) VH: EVQLLESGGGLVQPGGSLRLSCAASGFTFSSYSMHWVRQAPGKGLEWVAAISSNTGSIGYADSVKGRFTISRDNSKNTLYLQMNSLRAEDTAVYYCARVPYDVWIDYWGQGTLVTVSS VL: not shown | 289 |  |
| Ab38 (Fab, V domains shown, ARV set) VH: EVQLLESGGGLVQPGGSLRLSCAASGFTFSSYTMSWVRQAPGKGLEWVAGIWSDSGNKGYADSVKGRFTISRDNSKNTLYLQMNSLRAEDTAVYYCARVPYSVWIDYWGQGTLVTVSS VL: not shown | 45.5 |  |
| Ab68 (Fab, V domains shown, ARV set) VH: EVQLLESGGGLVQPGGSLRLSCAASGFTFSSYSMHWVRQAPGKGLEWVAAIKGNTGSTYYADSVKGRFTISRDNSKNTLYLQMNSLRAEDTAVYYCARVPYGVWMDYWGQGTLVTVSS VL: not shown | 639 |  |
| Ab10 (Fab, V domains shown, ARG set) VH: EVQLLESGGGLVQPGGSLRLSCAASGFTFSSYSMNWVRQAPGKGLEWVAYIKSNSGTKGYADSVKGRFTISRDNSKNTLYLQMNSLRAEDTAVYYCARGPYDYWLDYWGQGTLVTVSS VL: not shown | 101 | 40.7 |
| Ab60 (Fab, V domains shown, ARV set) VH: EVQLLESGGGLVQPGGSLRLSCAASGFTFSSYSMHWVRQAPGKGLEWVSSISSSAGYTSYADSVKGRFTISRDNSKNTLYLQMNSLRAEDTAVYYCARVPYDVWLDYWGQGTLVTVSS VL: not shown | 79.8 |  |
| Ab191 (Fab, V domains shown, ARV set) VH: EVQLLESGGGLVQPGGSLRLSCAASGFTFSSYSMHWVRQAPGKGLEWVSSIKSSASYSSYADSVKGRFTISRDNSKNTLYLQMNSLRAEDTAVYYCARVPYDYWMDYWGQGTLVTVSS VL: not shown | 44.9 | 104 |
| Ab158 (Fab, V domains shown, ARE set) VH: EVQLLESGGGLVQPGGSLRLSCAASGFTFSSYSMSWVRQAPGKGLEWVAAIKGSAGTSGYADSVKGRFTISRDNSKNTLYLQMNSLRAEDTAVYYCAREPYGYWLDYWGQGTLVTVSS VL: DIQMTQSPSSLSASVGDRVTITCRASQSISSYVAWYQQKPGKAPKLLIYGNTSLQSGVPSRFSGSGSGTDFTLTISSLQPEDFATYYCQQGDENPLTFGGGTKVEIK |  | 156 |

Next, values leading:

| EC50 [1] [nM] | EC50 [2] [nM] | Binder |
| --- | --- | --- |
| 6.2 |  | Ab187 (Fab, V domains shown, ARE set) VH: EVQLLESGGGLVQPGGSLRLSCAASGFTFSSYSMSWVRQAPGKGLEWVASIKSDASTTGYADSVKGRFTISRDNSKNTLYLQMNSLRAEDTAVYYCAREPYSVWLDYWGQGTLVTVSS VL: not shown |
| 27.1 |  | Ab152 (Fab, V domains shown, ARV set) VH: EVQLLESGGGLVQPGGSLRLSCAASGFTFSSYSMHWVRQAPGKGLEWVTSISSNAGYISYADSVKGRFTISRDNSKNTLYLQMNSLRAEDTAVYYCARVPYDVWMDYWGQGTLVTVSS VL: not shown |
| 1.2 |  | Ab4 (Fab, V domains shown, ARG set) VH: EVQLLESGGGLVQPGGSLRLSCAASGFTFDSYGMNWVRQAPGKGLEWVASIKYSSGYKYYADSVKGRFTISRDNSKNTLYLQMNSLRAEDTAVYYCARGPYDVWMDYWGQGTLVTVSS VL: not shown |
| 25.4 |  | Ab6 (Fab, V domains shown, ARE set) VH: EVQLLESGGGLVQPGGSLRLSCAASGFTFSDYSMSWVRQAPGKGLEWVARISSSSSYKSYADSVKGRFTISRDNSKNTLYLQMNSLRAEDTAVYYCAREPYSVWLDYWGQGTLVTVSS VL: not shown |
| 4.6 |  | Ab193 (Fab, V domains shown, ARE set) VH: EVQLLESGGGLVQPGGSLRLSCAASGFTFSSYAMSWVRQAPGKGLEWVSAIKSDTSTIYYADSVKGRFTISRDNSKNTLYLQMNSLRAEDTAVYYCAREPYSTWLDYWGQGTLVTVSS VL: not shown |
| 27.7 |  | Ab12 (Fab, V domains shown, ARE set) VH: EVQLLESGGGLVQPGGSLRLSCAASGFTFSSYAMSWVRQAPGKGLEWVASINSNGGYKSYADSVKGRFTISRDNSKNTLYLQMNSLRAEDTAVYYCAREPYGTWLDYWGQGTLVTVSS VL: not shown |
| 0.3 |  | Ab40 (Fab, V domains shown, ARG set; also called clone Ab40) VH: EVQLLESGGGLVQPGGSLRLSCAASGFTFSSYGMNWVRQAPGKGLEWVAGIKYSSGNKYYADSVKGRFTISRDNSKNTLYLQMNSLRAEDTAVYYCARGPYDVWMDYWGQGTLVTVSS VL: not shown |
| 9.1 | 5.1 | Ab22 (Fab, V domains shown, ARV set) VH: EVQLLESGGGLVQPGGSLRLSCAASGFTFSSYSMHWVRQAPGKGLEWVASIKSSGGSKYYADSVKGRFTISRDNSKNTLYLQMNSLRAEDTAVYYCARVPYDYWMDYWGQGTLVTVSS VL: not shown |
| 5 | 8.4 | Ab15 (Fab, V domains shown, ARV set) VH: EVQLLESGGGLVQPGGSLRLSCAASGFTFSSYSMHWVRQAPGKGLEWVASIWSNSGNTGYADSVKGRFTISRDNSKNTLYLQMNSLRAEDTAVYYCARVPYDYWMDYWGQGTLVTVSS VL: not shown |
| 3.4 | 5.7 | Ab143 (Fab, V domains shown, ARV set; also called clone Ab143) VH: EVQLLESGGGLVQPGGSLRLSCAASGFTFSSYSMHWVRQAPGKGLEWVAAINSNAGSSSYADSVKGRFTISRDNSKNTLYLQMNSLRAEDTAVYYCARVPYGVWMDYWGQGTLVTVSS VL: not shown |
| 7.5 | 28.7 | Ab28 (Fab, V domains shown, ARV set) VH: EVQLLESGGGLVQPGGSLRLSCAASGFTFSSYSMHWVRQAPGKGLEWVANINSNGGNTGYADSVKGRFTISRDNSKNTLYLQMNSLRAEDTAVYYCARVPYDVWMDYWGQGTLVTVSS VL: not shown |
| 32.8 | 234 | Ab155 (Fab, V domains shown, ARE set) VH: EVQLLESGGGLVQPGGSLRLSCAASGFTFSSYSMNWVRQAPGKGLEWVAAISGDTGTSGYADSVKGRFTISRDNSKNTLYLQMNSLRAEDTAVYYCAREPYSVWLDYWGQGTLVTVSS VL: not shown |
| 13.8 | 41.8 | Ab48 (Fab, V domains shown, ARG set; also called clone Ab48) VH: EVQLLESGGGLVQPGGSLRLSCAASGFTFSSYSMNWVRQAPGKGLEWVANIKSSGSSTSYADSVKGRFTISRDNSKNTLYLQMNSLRAEDTAVYYCARGPYDVWMDYWGQGTLVTVSS VL: not shown |
| 4.3 |  | Ab53 (Fab, V domains shown, ARG set; also called clone Ab53) VH: EVQLLESGGGLVQPGGSLRLSCAASGFTFSSYSMHWVRQAPGKGLEWVASIKSSSSNKYYADSVKGRFTISRDNSKNTLYLQMNSLRAEDTAVYYCARGPYDVWLDYWGQGTLVTVSS VL: not shown |
| 15.7 |  | Ab2 (Fab, V domains shown, ARG set) VH: EVQLLESGGGLVQPGGSLRLSCAASGFTFSSYGMNWVRQAPGKGLEWVAGINYSSGNKYYADSVKGRFTISRDNSKNTLYLQMNSLRAEDTAVYYCARGPYASTWLDYWGQGTLVTVSS VL: not shown |
